Source: the DeepSol protein solubility set

assay: soluble on expression in E. coli; label from the status in PepcDB or PDB records

Sequence | soluble on expression in E. coli
MESYIQNLFAERIGGKSFGKEDVIYKFEKIKRAKQAAKLKYPDMELIDMGVGEPDEMADESVVEVLCEEAKKHVNRGYSDNGVQALKDEIPIYLEKIFGVKDLDPVNEVVHSIGSKPALAYITSVFINPGDVTLMTVPGYPVTATHTKWYGGSVETLPLLEKNNFLPELDAISKEVRENAKILYLNYPNNPTGAQATKKFYKEAVDFAFENDLIVIQDAAYAALTYGDKPLSFLSVKDAKEVGVEIHSFSKAYNMTGWRLAFVAGNELIVRGFAAVKDNYDSGQFIPIQKAGIHCLRHPEITEKTRAKYERRLSKMVKILKEAGFNAKMPGGTFYLYVKAPIGTKDGAKFANAEEFSQFMIKEKLISTVPWDDAGNFVRMAACFEAFKDGEISIEEEDRILNEVKRRLTEVEFVFE | not soluble
GSHMASMTGGQQMGRGSEFRSMTAIEDILQITTDPSDTRGYSLLKSEEVPQGSTLGVDFIDTLLLYQLTENEKLDKPFEYLNDCFRRNQQQKRITKNKPNAESLHSTFQEIDRLVIGYGVVALQIENFCMNGAFINYITGIVSNVNSYTDFLSQIIQRAILEGTALDLLNAVFPTLLEYCNKHVSHFDLNESVIYNNVLTIFELFVTFKPIAEIFTKIDGFFADYSCKPQDFERKTILGPILSLSPIEAAVAIRNYGDNLLRSKQQTAMIHESLQAEHKVVIDRLFFIVDKLVRGSLNSRTDMISYFAHIANKNHLRRADHPPFKELSSNGFMSNITLLLVRFSQPFLDISYKKIDKIDANYFNNPSLFIDLSGETRLNSDFKEADAFYDKNRKTADSKPNFISDCFFLTLTYLHYGLGGTLSFEEKMGSEIKALKEEIEKVKKIAANHDVFARFITAQLSKMEKALKTTESLRFALQGFFAHRSLQLEVFDFICGASTFLIRVVDPEHEFPFKQIKLPLIPDQIGVENVDNADFLRAHAPVPFKYYPEFVVEGPVNYSLYISKYQTSPIFRNPRLGSFVEFTTMVLRCPELVSNPHLKGKLVQLLSVGAMPLTDNSPGFMMDIFEHDELVNKNLLYALLDFYVIVEKTGSSSQFYDKFNSRYSISIILEELYYKIPSYKNQLIWQSQNNADFFVRFVARMLNDLTFLLDEGLSNLAEVHNIQNELDNRARGAPPTREEEDKELQTRLASASRQAKSSCGLADKSMKLFEIYSKDIPAAFVTPEIVYRLASMLNYNLESLVGPKCGELKVKDPQSYSFNPKDLLKALTTVYINLSEQSEFISAVAKDERSFNRNLFVRAVDILGRKTGLASPEFIEKLLNFANKAEEQRKADEEEDLEYGDVPDEFLDPLMYTIMKDPVILPASKMNIDRSTIKAHLLSDSTDPFNRMPLKLEDVTPNEELRQKILCFKKQKKEEAKHKASE | soluble
MKHLKLIVVILATLALGCLIKSPASVKFEIDRTTIPPSGVFHLIVTLNNTGKVGIVDAKLVVEGEEFFIVQSPKLEHPIKVGDSAKLIWTIKGPKIPGNYHFKAYLDIVDELNRVWRGITYETTIKVSSEELKDSVNLNLTVPSKVQGGKIIIVSGEIVNNLTVPVNIVSAEVSAEDLEVIDKEVPNKIDANSKGKVVFKFKVPPRYEKVRMYVIIEYASLQVSGKLIGEKDILIVWKPWELSPEDVKDIYGNLSEWIFYNDIVDGYWEWMYGSKSKIENRTMFRESVEDLLSVANSDVEAAKAVYNHIVTNYVIEKRRIKTLDPQKIMESSSISPTEAEILMVAYLRSLNIPARIVSVYSETDCTYSPFVEAYLSGKWYVIDFNHMFFGTREEFIATRWYPKIYQEITVFGKSLVALKPSPSGHAHEDLTKEYLSITEKALFNHLSKSLDPSTFSQVRIMLNSMNNEDERIFAMFLFTSAKPEEAKQLLEKVHVNELKKTIDAFYKFYRDIPWEEDFRIYWEKLINLYRLEHHHHHH | not soluble
MGSSHHHHHHSSGLVPRGSHMSQSTYSLEQLADFLKVEFQGNGATLLSGVEEIEEAKTAHITFLDNEKYAKHLKSSEAGAIIISRTQFQKYRDLNKNFLITSESPSLVFQKCLELFITPVDSGFPGIHPTAVIHPTAIIEDHVCIEPYAVVCQHAHVGSACHIGSGSVIGAYSTVGEHSYIHPRVVIRERVSIGKRVIIQPGAVIGSCGFGYVTSAFGQHKHLKHLGKVIIEDDVEIGANTTIDRGRFKHSVVREGSKIDNLVQIAHQVEVGQHSMIVAQAGIAGSTKIGNHVIIGGQAGITGHICIADHVIMMAQTGVTKSITSPGIYGGAPARPYQEIHRQVAKVRNLPRLEERIAALEKLVQKLEALSEQH | soluble
HHHHHHATGDDHFYAEYLMPGLQRLLDPESAHRLAVRVTSLGLLPRATFQDSDMLEVKVLGHKFRNPVGIAAGFDKNGEAVDGLYKLGFGFVEVGSVTPQPQEGNPRPRVFRLPEDQAVINRYGFNSHGLSVVEHRLRARQQKQAQLTADGLPLGINLGKNKTSEDAAADYAEGVRTLGPLADYLVVNVSSPNTAGLRSLQGKTELRHLLSKVLQERDALKGTRKPAVLVKIAPDLTAQDKEDIASVARELGIDGLIVTNTTVSRPVGLQGALRSETGGLSGKPLRDLSTQTIREMYALTQGRIPIIGVGGVSSGQDALEKIQAGASLVQLYTALIFLGPPVVVRVKRELEALLKERGFTTVTDAIGADHRR | soluble
MAHHHHHHMKEDESDEPVQKKEYEKTFWEQIGKPKHILAPMVDLSELAFRLLCRNYNCHLTFTPMLHAKNFVEHEKYRKSYFQSCEKDEPVIAQFCGNNSKIILNAIEYIKNEVNAVDLNLGCPQQIAKKGNYGAFLLQKHDEVVNLVSDITNNCNIPITCKIRKIDQDYQKTLNLCYDLQSRNVKMITVHGRTKEEKGTNIKQCDYEIIKIIKERLNIPIIANGSIEHFEDIQKCLNYTKADAVMCAEILLEKPYFFSNQNVHTVDVVNEYYDLFLQYESNTKYLKGHLFKMLYKYFQVHTDLRDMLNNCHSLDDYVNFRSILNEKRSSGVLTESSLSWYRRYRKTE | not soluble
MDVIKIGDIVARKSYQCDLLFRVIDIKEKNGEWEAILYGEDVRLVADAPCSDLVVIDEQEQQERKKREIELLEQSYRLFRQDYQAIKQKVEYRATGGYRVEKDFFQIPGRVLHLDGDPLYLRKCMDLYERIGVPVHGIYCEESEMPEKVGYWIEQFRPDILVITGHDSYSKSKGKVHELKAYRHSRHFVQTVKEARKKVPHLDQLIIFAGACQSHFESLIRAGANFASSPARVNIHALDPVYIVSRLSFTPFTETVDVWDVLRNTLTGEKGLGGVETKGVLRTGMPFRLIEDREENRRS | not soluble
MKKVYFATKADVERLHSFFGQANKKDDKINELYAQFMILEEAEEIRAVIGYEQSGEDVLIRSCLFTPHVDKQTFLYFFEMFLQYMKEKSVQQLYLLTNHPQSVPIFQFFDFFTIEKDEVPEGIQQLEHFCKNIKEQNAIILNCQLFTKLSTD | not soluble
MLTDGSYFHLHLVSDSTGETLITVSRAVTAQYANVTPVEHVYPLVRSQKQLDRVLQEIEEAPGIVLFTLLETELVNRLEAKCQEINSPSLSIIGPVMQLFEAYLGASTMGRVGAQHTLNAEYFQRIDALNYSMMHDDGQHVEGLEEADVVLVGVSRTSKTPTSIYLANRGIRTANVPLVAGIPIPHQLETLKKPLVVSLHASPERLIQVRQNRLLSLGAGSGNDSYIDRQAVTDEVLLARKLSAKYGWSLLDVTRRSIEETAAAIMKLLADRQRQRVPELEHHHHHH | not soluble
MGSDKIHHHHHHAASITLPSGYTKNAVIKWNQTGKASKALINASKKGMMENTNSDAGSDNTLVNVTKLTNSQKVELSKYTLSLINSARSQLGKKPWTYRSGALRFADRVANQYYTHNKSCWDPDHYVAGILRAAKASGLNSNAGQVYEDEAGLPISSQYGSNLRTMSVLKNQIYFNVKQMLFGGFAGSDSQMNDSSRYTEWEHAGDLLGCRTKNYDAKTKYFGVSFSGLKDDQSKISVHMIGVAKRYIQNYKKFNH | not soluble
MAKVIFQDNFLLMGTNYHEKEANKVMAEIGKKSPYWDKDKDFISDYIKSNFKDIYKYYRVSTKDVEIVREPLNRHDPNAIKVMVNKTFVGYFPADLAKRLTPYVKKSSHYQMEATLTGRGGQYKTLKNDLKTVVTKKKDITYKLRLTILKVDRVSKSKNAGLLESIASWFLNLEHHHHHH | soluble
MGSDKIHHHHHHMGDSMSLDWDKLRIFHAAAEAGSFTHAADKLHLSQSAISRQVSSLEQDVGIKLFHRHARGLILTEQGEMLYRTAHDVLMKLESVKAQLSETTDKPSGKLRITTTVGLGQGWLTDKIQEFMSLYPEIQVQLILDNEELDVNMRHADCAIRLRQPQQSDLIQRKLFTVHMHVYAAPSYINKYGEPQSLDDLDNHRIITFGEPAPNYLLDVNWLEIAGRDSDNPRISHLQINSQTSIKRACLLGIGIAMLPDYIVGRDPGLIQLPISADIPSFDTYFCYPDELKNAAKLKVFRDYIVAKARNWNF | not soluble
MMNEKNPPLVSILIPTYNRPHYFKIALESALAQTYSNIEIIIGDDSTNDETATLIREQYLPNYKNITYIRNTPTLGQFHNDLMLIEKSNGEYINFLMDDDVFYKHKIQKMMTYFEQDPNKNLALVTSYRVRIDDHGNLIGDSHPTQRLYSEDTPLNGIFLGNWMLKGGHNIIGEPTTTLFRKELLTEPFGTLKERQYSCSVDMASWISLLSKGNAIYISEPLSQFRYHAGQQIHNKLLQGCEDFTHLVITAKEYGFLQNTTDYRAALLSAYQWCKSSLKYYLHQLDIFPDAHVRLSHCLDIIIKELNNLEHHHHHH | soluble
MTDTAENQTQNNWQAGHPRSIRSFVLRQSHMTAAQQRAIDTLWDSFGIDYQATPADLDARFGSSRPKILEIGFGMGTATAEIARRLPETDFLAIDVHGPGVGNLLKLIDENHLENIRVMRHDAVEVVENMLQDGSLDGIHIFFPDPWHKKRHHKRRLIQAPFIAKLLPKLKTGGYIHLATDWEEYAQQMLEVLSSFDSLQNTAADYAPTPDYRPETKFEARGKRLGHGVWDLVFKRIG | not soluble
MASISSLGVGSNLPLDQLLTDLTKNEKGRLTPITKQQSANSAKLTAYGTLKSALEKFQTANTALNKADLFKSTVASSTTEDLKVSTTAGAAAGTYKINVTQLAAAQSLATKTTFATTKEQLGDTSVTSRTIKIEQPGRKEPLEIKLDKGDTSMEAIRDAINDADSGIAASIVKVKENEFQLVLTANSGTDNTMKITVEGDTKLNDLLAYDSTTNTGNMQELVKAENAKLNVNGIDIERQSNTVTDAPQGITLTLTKKVTDATVTVTKDDTKAKEAIKSWVDAYNSLVDTFSSLTKYTAVEPGEEASDKNGALLGDSVVRTIQTGIRAQFANSGSNSAFKTMAEIGITQDGTSGKLKIDDDKLTKVLKDNTAAARELLVGDGKETGITTKIATEVKSYLADDGIIDNAQDNVNATLKSLTKQYLSVSNSIDETVARYKAQFTQLDTMMSKLNNTSSYLTQQFTAMNKS | not soluble
MSNKIVTLEINLEPSDNRRLASLCGPFDDNIKHLERRLGVEINHRSDHFTIVGKPHTSAAALDILKTLYVDTAPVRGEIPDIEPEQIHLAIKESGVLEQNTESSIAHGKEVFVKTKKGVIKPRTPNQAQYLVNMVTHDISFGIGPAGTGKTYLAVAAAVDALERQEIRRILLTRPAVEAGEKLGFLPGDLSQKVDPYLRPLYDALFEMLGFERVEKLIERNVIEVAPLAYMRGRTLNDAFIILDESQNTTVEQMKMFLTRIGFNSRAVITGDVTQIDLPRGAKSGLRHAIEVLSEVDDISFNFFQADDVVRHPVVARIVNAYEKWEAQDQKERKEFEKRRREERDAKLLEAAKAELSAQVAATKE | not soluble
RLFGDNVVALAGDAGFRTYWLSNQARLGRYDTPVTAMANMAHFKTWADAPYDEALLPLLDAALAEPGRKVVFLHINGNHDNYCTRYPETATVYQGGAPYEDCYDNSIRYVDALLGAVMDRLGERRASLLFYPDHGLERHESVLGTFYHGGVRPSREAFDIPMFIWNSPAAPAPARREYDAPYSTEDNYGLILDWLG | not soluble
